# Substitutions are numbered along the chain they refer to. In names and notes the source's numbering stands.
# T1: PCNA1 (Sulfolobus solfataricus, UniProt P57766 1-249)
# T1 construct: also called PCNA1 wild-type subunit
# T1 sequence (looked up): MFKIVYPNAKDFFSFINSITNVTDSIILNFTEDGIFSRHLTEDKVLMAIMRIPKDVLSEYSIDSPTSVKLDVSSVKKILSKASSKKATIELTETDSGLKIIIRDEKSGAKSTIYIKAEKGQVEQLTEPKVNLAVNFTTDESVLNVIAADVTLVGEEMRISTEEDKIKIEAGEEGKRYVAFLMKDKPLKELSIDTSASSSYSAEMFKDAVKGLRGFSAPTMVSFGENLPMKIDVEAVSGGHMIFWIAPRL
# T2: PCNA3dm (Sulfolobus solfataricus)
# T2 construct: also called third scaffold fragment 310; PCNA3 Y73F/S170V mutant subunit
# T2 chain: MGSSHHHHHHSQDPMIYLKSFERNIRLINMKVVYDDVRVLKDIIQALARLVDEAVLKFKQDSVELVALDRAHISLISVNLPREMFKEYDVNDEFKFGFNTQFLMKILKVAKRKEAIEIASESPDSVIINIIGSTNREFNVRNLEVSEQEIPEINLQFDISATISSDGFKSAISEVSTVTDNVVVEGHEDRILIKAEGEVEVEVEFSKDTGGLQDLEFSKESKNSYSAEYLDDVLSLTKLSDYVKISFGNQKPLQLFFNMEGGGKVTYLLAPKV
# B1: PCNA2 (other, Sulfolobus solfataricus, UniProt Q97Z84 1-245, looked up)
# chain: MKAKVIDAVSFSYILRTVGDFLSEANFIVTKEGIRVSGIDPSRVVFLDIFLPSSYFEGFEVSQEKEIIGFKLEDVNDILKRVLKDDTLILSSNESKLTLTFDGEFTRSFELPLIQVESTQPPSVNLEFPFKAQLLTITFADIIDELSDLGEVLNIHSKENKLYFEVIGDLSTAKVELSTDNGTLLEASGADVSSSYGMEYVANTTKMRRASDSMELYFGSQIPLKLRFKLPQEGYGDFYIAPRAD
# notes: also called PCNA2 wild-type subunit
# B2: PCNA3 (other, Sulfolobus solfataricus, UniProt P57765 1-244, looked up)
# chain: MKVVYDDVRVLKDIIQALARLVDEAVLKFKQDSVELVALDRAHISLISVNLPREMFKEYDVNDEFKFGFNTQYLMKILKVAKRKEAIEIASESPDSVIINIIGSTNREFNVRNLEVSEQEIPEINLQFDISATISSDGFKSAISEVSTVTDNVVVEGHEDRILIKAEGESEVEVEFSKDTGGLQDLEFSKESKNSYSAEYLDDVLSLTKLSDYVKISFGNQKPLQLFFNMEGGGKVTYLLAPKV
# notes: also called PCNA3 wild-type subunit
# B3: PCNA2dm (other)
# chain: MGSSHHHHHHSSGLVPRGSHMMKAKVIDAVSFSYILRTVGDFLSEANFIVTKEGIRVSGIDPSRVVFLDIFLPSSYFEGFEVSQEKEIIGFKLEDVNDILKRVLKDDTLILSSNESKLTLTFDGEFTRSFELPLIQVESTQPPSVNLEFPFKAQLLTITFADIIDELSDLGEVLNIHSKENKLYFEVIGDLVTVKVELSTDNGTLLEASGADVSSSYGMEYVANTTKMRRASDSMELYFGSQIPLKLRFKLPQEGYGDFYIAPRAD
# notes: also called second scaffold fragment 210; PCNA2 S172V/A174V mutant subunit
# B4: PCNA1dm (other)
# chain: T1 sequence (looked up) with T112K, Y114K
# notes: also called first scaffold fragment 110; PCNA1 T112K/Y114K mutant subunit
# How the values were obtained:
# Assay in all cases: BLI (BLItz, ForteBio); the partner on the sensor is not stated
# PCNA1 = biological target: T1, PCNA1
# PCNA2 = biological target: B1
# PCNA3dm = biological target: T2, PCNA3dm
# PCNA2dm = biological target: B3
binder,measurement,setting,value
B1,Kd,PCNA1,6.31 nM
B2,Kd,PCNA2,3170 nM
B3,Kd,PCNA3dm,571 nM
B4,Kd,PCNA2dm,2.65 nM

# From patent US20240042006A1 (KOREA UNIVERSITY RESEARCH AND BUSINESS FOUNDATION SEJONG …, published 2024)
